According to patent US20260275312, “CRISPR NUCLEASE POLYPEPTIDES AND GENE EDITING SYSTEMS COMPRISING SUCH” (ARBOR BIOTECHNOLOGIES, INC., published 2026):

Legend:
[1] = target: T1, Nuclease W S925R/E715R/A65R (synthetic construct, S925R,E715R,A65R); assay: cell_activity; HEK293T; PAM AAA; conditions: tags: N-term SV40 NLS, XTEN linker + C-term nucleoplasmin NLS
T1 chain: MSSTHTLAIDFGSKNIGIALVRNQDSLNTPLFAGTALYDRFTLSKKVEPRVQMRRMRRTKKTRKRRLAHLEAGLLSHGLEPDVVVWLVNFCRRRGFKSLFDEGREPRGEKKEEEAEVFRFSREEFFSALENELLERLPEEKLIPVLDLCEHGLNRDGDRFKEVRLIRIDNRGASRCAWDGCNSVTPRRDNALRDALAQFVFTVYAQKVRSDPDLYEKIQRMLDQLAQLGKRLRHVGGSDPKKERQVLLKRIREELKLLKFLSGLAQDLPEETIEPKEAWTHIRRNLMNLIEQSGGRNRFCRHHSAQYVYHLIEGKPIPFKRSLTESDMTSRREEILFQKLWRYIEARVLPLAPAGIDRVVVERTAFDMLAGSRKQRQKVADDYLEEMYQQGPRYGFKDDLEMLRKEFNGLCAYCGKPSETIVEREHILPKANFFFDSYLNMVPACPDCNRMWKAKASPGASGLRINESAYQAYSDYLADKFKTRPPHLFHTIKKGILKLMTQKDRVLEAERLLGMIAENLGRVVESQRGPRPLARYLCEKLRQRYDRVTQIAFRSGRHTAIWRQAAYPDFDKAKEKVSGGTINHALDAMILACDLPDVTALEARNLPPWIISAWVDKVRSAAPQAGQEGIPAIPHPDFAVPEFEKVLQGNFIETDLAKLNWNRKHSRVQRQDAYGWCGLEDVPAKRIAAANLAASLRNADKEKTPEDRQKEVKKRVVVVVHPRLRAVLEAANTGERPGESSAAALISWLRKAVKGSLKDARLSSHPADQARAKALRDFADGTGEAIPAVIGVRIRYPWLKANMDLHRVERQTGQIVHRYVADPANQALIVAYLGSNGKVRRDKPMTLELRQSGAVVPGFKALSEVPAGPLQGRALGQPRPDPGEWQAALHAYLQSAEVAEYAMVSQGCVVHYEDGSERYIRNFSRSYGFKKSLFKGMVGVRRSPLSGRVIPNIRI
Experimental: Approximately 16 hours prior to transfection, 25,000 HEK293T cells in DMEM/10% FBS+Pen/Strep (D10 media) were plated into each well of a 96-well plate. On the day of transfection, the cells were 50-90% confluent. For each well to be transfected, a mixture of Lipofectamine 2000™ (ThermoFisher Scientific) and Opti-MEM™ (ThermoFisher Scientific) was prepared and incubated at room temperature for 5 minutes (Solution 1). After incubation, the Lipofectamine 2000™:Opti-MEM™ mixture was added to a separate mixture containing the CRISPR nuclease plasmid (NLS-tagged), RNA guide plasmid, and Opti-MEM™ (Solution 2). In the case of negative controls, the CRISPR nuclease plasmid was excluded. Solutions 1 and 2 were mixed by pipetting up and down, then incubated at room temperature for 25 minutes. Following incubation, the Solution 1 and 2 mixture was added dropwise to each well of a 96-well plate containing the cells. […]
Each Nuclease W variant was cloned as described in Example 2. […] For each target, indel ratios, referring to the percentage of NGS reads comprising indels, were calculated for the reference Nuclease W (SEQ ID NO: 1) and for each Nuclease W variant. The indel ratios shown in Table 5 were calculated as the average of two bioreplicates, each of which contained two technical replicates.

Nuclease H D912R = target: T2, Nuclease H D912R (synthetic construct, D912R); assay: cell_activity; HEK293T; PAM AAC; conditions: tags: N-term SV40 NLS, XTEN linker + C-term nucleoplasmin NLS
T2 chain: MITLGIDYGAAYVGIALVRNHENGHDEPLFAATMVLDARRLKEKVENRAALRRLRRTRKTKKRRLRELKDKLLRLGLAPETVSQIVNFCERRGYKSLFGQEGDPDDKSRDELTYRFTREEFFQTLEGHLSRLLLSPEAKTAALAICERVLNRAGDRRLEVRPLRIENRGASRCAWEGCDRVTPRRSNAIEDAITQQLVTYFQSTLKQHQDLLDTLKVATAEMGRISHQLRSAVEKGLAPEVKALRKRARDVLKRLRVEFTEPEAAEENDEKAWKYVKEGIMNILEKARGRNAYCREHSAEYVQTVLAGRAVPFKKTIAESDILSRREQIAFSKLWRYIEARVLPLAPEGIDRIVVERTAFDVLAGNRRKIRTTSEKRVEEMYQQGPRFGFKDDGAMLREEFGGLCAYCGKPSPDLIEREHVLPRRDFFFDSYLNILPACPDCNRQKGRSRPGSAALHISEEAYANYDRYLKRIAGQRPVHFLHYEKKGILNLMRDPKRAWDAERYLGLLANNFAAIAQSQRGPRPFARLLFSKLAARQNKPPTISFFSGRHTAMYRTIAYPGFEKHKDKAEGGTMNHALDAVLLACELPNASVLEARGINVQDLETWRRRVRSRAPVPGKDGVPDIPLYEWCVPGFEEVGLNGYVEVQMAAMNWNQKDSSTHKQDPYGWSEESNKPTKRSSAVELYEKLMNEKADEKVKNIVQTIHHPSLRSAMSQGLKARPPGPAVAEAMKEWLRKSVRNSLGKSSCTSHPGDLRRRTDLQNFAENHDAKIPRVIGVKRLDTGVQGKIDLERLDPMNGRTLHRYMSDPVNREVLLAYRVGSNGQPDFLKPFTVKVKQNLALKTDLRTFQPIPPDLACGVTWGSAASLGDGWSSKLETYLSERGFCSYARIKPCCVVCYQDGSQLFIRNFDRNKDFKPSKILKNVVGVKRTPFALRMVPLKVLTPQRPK
Experimental: HEK293T cells were transfected with plasmids expressing the Nuclease H polypeptides and the gRNAs provided herein following the methods provided in Example 1 above. Gene editing efficiencies were determined by NGS following the methods also provided in Example 1. The NGS results were analyzed also following the methods provided in Example 1 above.
Indel ratios, referring to the percentage of NGS reads comprising indels, were calculated for the reference and for each variant. The indel ratios used for fold change calculations were the average of two technical replicates. To then calculate fold change in indel ratios, the indel ratio for each variant was divided by the indel ratio for the reference. […] Numbering is relative to the reference nuclease of SEQ ID NO: 64 (i.e., without an NLS).

B1: W EMX1-T5 RNA guide ; EMX1-T5 target (W) (ssRNA ; dsDNA)
RNA: UAAACUACAGUGGUGCCUGGGUUUCAGCUACCCUGAGUUUCUCAACUCCGUUGAGACUUCCUCAGGUUCAAGCUGAAAAGAGCAUCUGUCCGGAAGGACCACUCCGGGUUAGGGCAGACCCGGCUCUUGGGCUUCCUUGGUCUUUGACUCUGGAGGAAACCUUCCGGCGUGUCGCAAGACAAGAUGUGAGCCUG
DNA 1: TAAACTACAGTGGTGCCTGG
DNA 2: CCAGGCACCACTGTAGTTTA
[1]
  binding signal: 4.84 fold indel vs reference

B2: H AAVS1-T5 RNA guide ; AAVS1-T5 target (H) (ssRNA ; dsDNA)
RNA: GGCUAUAAUCCAUGCUGACCGUUUCAAUCAACCUGAUCUCUCUGCUUGCGCUGCAGGCUUCAUAAGAUCAGUAGGUUGAAAAGAGCAUCCGUCCGACAUGCACUCCGGGAUGGGGCAGUCCCGGCUCUUGCGGUUCCCGAUGCAGUUAUGUGUCCGCGGAACACGGUGUCGGACACGUCGCAAGACAGGAUGUGAGCCCAUUAUCCACAUUAGGAUCAAUGUACGCAUGAGCAGUCCGCAAUGCCGGGGACGCU
DNA 1: GGCTATAATCCATGCTGACC
DNA 2: GGTCAGCATGGATTATAGCC
Nuclease H D912R
  fold change in indel ratio vs reference: 4.21 fold indel vs reference
